The target of data set [1] is human cancer-specific MUC1 peptide. Description: ELISA binding activity of anti-human MUC1 antibody Fab^5 fragment conjugates (Example 6-1). The procedure: (§1) Each anti-human MUC1 antibody Fab^5 fragment conjugate prepared by the method of Example 5 was subjected to ELISA to evaluate the binding activity thereof to human cancer-specific MUC1. In the present test, 20×PBS/Tween 20 Buffer (Thermo Fisher Scientific Inc., 28352) diluted 20-fold with distilled water was used as a wash liquid. In addition, for bovine serum albumin (BSA) used in the present test, 30% Bovine Serum Albumin solution (Sigma-Aldrich, Inc., A9576-50ML) was added in an appropriate proportion for use. A human cancer-specific MUC1 peptide (PTL 1) at 0.5 μmol/L was added to a Nunc MaxiSorp White 384 plate (Nunc, 460372) at 30 μL per well, and the plate was incubated overnight at 4° C. for immobilization. The MUC1 peptide was removed by reverse centrifugation, and then blocking was carried out by adding a PBS/Tween 20 buffer containing 5.0% BSA. Thereafter, the blocking solution was removed by reverse centrifugation, a solution of each anti-human MUC1 antibody Fab^5 fragment conjugate (Ex-No. 104, 108, or 112) described above at about 10000 ng/mL was diluted in 14 steps by 3-fold dilution using a PBS/Tween 20 buffer containing 1.0% BSA, and 30 μL was added per well and incubated at room temperature for 60 minutes. The plate was washed 3 times with a PBS/Tween 20 buffer, and Horseradish Peroxidase-labeled goat anti-human IgK antibody (Southern Biotechnology Associates, Inc.) diluted 10000-fold using a PBS/Tween 20 buffer containing 5.0% BSA was added at 30 μL per well and incubated at room temperature for 30 minutes. The plate was washed 3 times with a PBS/Tween 20 buffer, and ECL Prime Western Blotting DETECTION Reagent (GE Healthcare, RPN2232) as a substrate was added at 30 μL per well. The substrate was incubated at room temperature for 15 minutes, and then a signal value thereof was measured using an Envision counter (PerkinElmer, Inc.).
(§2) The test for each antibody was carried out in duplicate, and the EC50 value was calculated using a 4-parameter logistic curve model.
(In an ELISA, binding on a coated surface is turned into a signal by an enzyme label.)

Data set [2] deals with human cancer-specific MUC1 peptide (Homo sapiens, UniProt P15941). Description: ELISA binding activity of anti-human MUC1 antibody Fab^5 fragment conjugates (Example 6-2). The procedure:
as §1, with “101-113)” for “104, 108, or 112)”
as §2

On the set-up of data set [3]: species or system mice (BALB/c or BALB/c nu/nu). Particulars: mouse, in vivo.
Description: A Gd-labeled conjugate of the conjugate containing a peptide linker produced in one of the above Examples was administered from the tail vein of mice (BALB/c or BALB/c nu/nu) so that the protein mass was 0.02 mg (100 μL) per animal. After about 24 hours, the mice were sacrificed and the kidneys were removed, and the amount of Gd in the kidneys was measured using ICP-MS. The present test was carried out in 3 cases in each group, the mean value of the 3 cases was calculated, and the amount of Gd contained per kidney after administration was shown as a percentage (% of dose/tissue) of the total amount of Gd administered.
Based on the amount of Gd contained in the kidneys of the control conjugate, the proportion of decrease in the amount of Gd contained in the kidneys of each of the conjugates having a peptide linker was determined.
On the set-up of data set [4]: species or system mice (BALB/c nu/nu). Conditions: mouse, in vivo.
Description: A Gd-labeled conjugate of the conjugate containing a peptide linker produced in one of the above Examples was administered from the tail vein of the tumor-bearing mice so that the protein mass was 0.02 mg (100 μL) per animal. As the tumor-bearing mice used in the present Example, mice (BALB/c nu/nu) that were in a tumor-bearing state brought about by transplanting human breast cancer cell line MDA-MB-468 (ATCC(registered trademark); HTB-132) at 5.0×10^6 cells/mouse subcutaneously on the back before administration of the sample were used. 24 hours after administration of the sample, the mice were sacrificed, the kidneys and the tumor were removed, and the amounts of Gd in the kidneys and in the tumor were measured using ICP-MS. The present test was carried out in 3 cases in each group, and the mean value of the 3 cases was calculated. The amount of Gd contained per kidney after administration was shown as a percentage of the amount of Gd administered (% of dose/tissue), and the amount of Gd contained per g of tumor tissue was shown as a percentage of the total amount of Gd administered (% of dose/g).
For data set [5], the target named is human cancer-specific MUC1 peptide (PTL 1) (human). The experiment in a line: ELISA on immobilised human cancer-specific MUC1 peptide, 4-parameter fit, duplicate (Example 6-1).
The target is the same in data set [6]. Description: ELISA on immobilised human cancer-specific MUC1 peptide, 4-parameter fit, duplicate (Example 6-2).
The mark [7] stands for this setting: each conjugate run in duplicate, Table 52, read-out: EC50.
The mark [8] stands for this setting: each conjugate run in duplicate, Table 54, read-out: EC50.

In general, EC50 refers to the concentration giving half of the maximal effect.

Read-outs that look alike come from different tables or passages of the source.

human cancer-specific MUC1 peptide (Homo sapiens, UniProt P15941), sequence (P15941 136-155): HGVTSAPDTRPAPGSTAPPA

B1: P10-2: anti-human MUC1 antibody Fab fragment disclosed in International Publication WO2018/092885; heavy chain fragment SEQ ID NO: 8, light chain SEQ ID NO: 10 (antibody)
heavy: QVQLVQSGAEVKKPGASVKVSCKASGYTFTNYGLSWVRQAPGQGLEWMGENHPGSGIIYHNEKFRGRVTLTADRSTSTAYMELSSLRSEDTAVYYCARSSGTRGFDYWGQGTLVTVSSASTKGPSVFPLAPSSKSTSGGTAALGCLVKDYFPEPVTVSWNSGALTSGVHTFPAVLQSSGLYSLSSVVTVPSSSLGTQTYICNVNHKPSNTKVDKKVEPKSCD
light: DVVMTQTPLSLSVTPGQPASISCRSSQSIVHSNGNTYLEWYLQKPGQSPQLLIYRVSNRFSGVPDRFSGSGSGTDFTLKISRVEAEDVGVYYCFQGSHGPWTFGQGTKLEIKRTVAAPSVFIFPPSDEQLKSGTASVVCLLNNFYPREAKVQWKVDNALQSGNSQESVTEQDSKDSTYSLSSTLTLSKADYEKHKVYACEVTHQGLSSPVTKSFNRGEC
modifications: P10-2 Fab heavy chain fragment; Antibody light chain
For the molecule B1, the concentration giving a half-maximal response (EC50) in data set [1] (EC50 value for each of 3 runs, Table 51, read-out: EC50 P10-2) amounted to 0.06 nM; in data set [2] (EC50 value for each of 3 runs, Table 53, read-out: EC50 P10-2), 0.06 nM.

B2: [Gd/DOTA-NH—CH2-(1,4-Ph)-NH—C(═O)-Met-Ile-NH—(CH2)2-(A-3)]p-Fab^5 (conjugate)
heavy: QVQLVQSGAEVKKPGASVKVSCKASGYTFTNYGLSWVRQAPGQGLEWMGENHPGSGIIYHNEKFRGRVTLTADRSTSTAYMELSSLRSEDTAVYYCARSSGTRGFDYWGQGTLVTVSSASTKGPSVFPLAPSSKSTSGGTAALGCLVKDYFPEPVTVSWNSGALTSGVHTFPAVLQSSGLYSLSSVVTVPSSSLGTQTYICNVNHKPSNTKVDKKVEPKSCD
light: DVVMTQTPLSLSVTPGQPASISCRSSQSIVHSNGNTYLEWYLQKPGQSPQLLIYRVSNRFSGVPDRFSGSGSGTDFTLKISRVEAEDVGVYYCFQGSHGPWTFGQGTKLEIKRTVAAPSVFIFPPSDEQLKSGTASVVCLLNNFYPREAKVQWKVDNALQSGNSQESVTEQDSKDSTYSLSSTLTLSKADYEKHKVYACEVTHQGLSSPVTKSFNRGEC
modifications: non-natural residues
In the case of B2, the EC50 in data set [1] (setting [7]) turned out to be 0.15 nM. In data set [3], the “Renal residual amount (normal mice) % of dose/tissue” value is 2.80 % of dose/tissue and the “Renal residual amount (normal mice) Proportion of decrease” value is 91.52%. Further, in data set [4], the “Renal residual amount (tumor-bearing mice) % of dose/tissue” value is 4.13 % of dose/tissue and the “Renal residual amount (tumor-bearing mice) Proportion of decrease” value came out at 88.08%.

B3: [Gd/DOTA-NH—CH2-(1,4-Ph)-NH—C(═O)-Met-Ile-NH—(CH2)2—Z1(#N)]p-Fab^5 (conjugate)
heavy: QVQLVQSGAEVKKPGASVKVSCKASGYTFTNYGLSWVRQAPGQGLEWMGENHPGSGIIYHNEKFRGRVTLTADRSTSTAYMELSSLRSEDTAVYYCARSSGTRGFDYWGQGTLVTVSSASTKGPSVFPLAPSSKSTSGGTAALGCLVKDYFPEPVTVSWNSGALTSGVHTFPAVLQSSGLYSLSSVVTVPSSSLGTQTYICNVNHKPSNTKVDKKVEPKSCD
light: DVVMTQTPLSLSVTPGQPASISCRSSQSIVHSNGNTYLEWYLQKPGQSPQLLIYRVSNRFSGVPDRFSGSGSGTDFTLKISRVEAEDVGVYYCFQGSHGPWTFGQGTKLEIKRTVAAPSVFIFPPSDEQLKSGTASVVCLLNNFYPREAKVQWKVDNALQSGNSQESVTEQDSKDSTYSLSSTLTLSKADYEKHKVYACEVTHQGLSSPVTKSFNRGEC
modifications: non-natural residues
Turning to B3, the half-maximal effective concentration (EC50) in data set [2] (setting [8]) stood at 0.08 nM.

B4: [Gd/DOTA-NH—CH2-(1,4-Ph)-NH—C(═O)-Met-Ile-NH—(CH2)2-(A-4 and/or A-5)]p-Fab^5 (conjugate)
heavy: QVQLVQSGAEVKKPGASVKVSCKASGYTFTNYGLSWVRQAPGQGLEWMGENHPGSGIIYHNEKFRGRVTLTADRSTSTAYMELSSLRSEDTAVYYCARSSGTRGFDYWGQGTLVTVSSASTKGPSVFPLAPSSKSTSGGTAALGCLVKDYFPEPVTVSWNSGALTSGVHTFPAVLQSSGLYSLSSVVTVPSSSLGTQTYICNVNHKPSNTKVDKKVEPKSCD
light: DVVMTQTPLSLSVTPGQPASISCRSSQSIVHSNGNTYLEWYLQKPGQSPQLLIYRVSNRFSGVPDRFSGSGSGTDFTLKISRVEAEDVGVYYCFQGSHGPWTFGQGTKLEIKRTVAAPSVFIFPPSDEQLKSGTASVVCLLNNFYPREAKVQWKVDNALQSGNSQESVTEQDSKDSTYSLSSTLTLSKADYEKHKVYACEVTHQGLSSPVTKSFNRGEC
modifications: non-natural residues
For the molecule B4, the concentration for a half-maximal effect (EC50) in data set [1] (setting [7]) was determined as 0.08 nM. Moreover, in data set [3], the “Renal residual amount (normal mice) % of dose/tissue” value is listed as 2.30 % of dose/tissue and the “Renal residual amount (normal mice) Proportion of decrease” value is given as 93.03%. Further, in data set [4], the “Renal residual amount (tumor-bearing mice) % of dose/tissue” value is given as 3.17 % of dose/tissue and the “Renal residual amount (tumor-bearing mice) Proportion of decrease” value was found to be 90.87%.

B5: [Gd/DOTA-[2,5-(1,2,3,4-tetrahydroisoquinoline)]-C(═O)-Met-Gly-Lys*-C(═S)—NH-(1,4-Ph)-NH—C(═S)]p-Fab^5 (conjugate)
heavy: QVQLVQSGAEVKKPGASVKVSCKASGYTFTNYGLSWVRQAPGQGLEWMGENHPGSGIIYHNEKFRGRVTLTADRSTSTAYMELSSLRSEDTAVYYCARSSGTRGFDYWGQGTLVTVSSASTKGPSVFPLAPSSKSTSGGTAALGCLVKDYFPEPVTVSWNSGALTSGVHTFPAVLQSSGLYSLSSVVTVPSSSLGTQTYICNVNHKPSNTKVDKKVEPKSCD
light: DVVMTQTPLSLSVTPGQPASISCRSSQSIVHSNGNTYLEWYLQKPGQSPQLLIYRVSNRFSGVPDRFSGSGSGTDFTLKISRVEAEDVGVYYCFQGSHGPWTFGQGTKLEIKRTVAAPSVFIFPPSDEQLKSGTASVVCLLNNFYPREAKVQWKVDNALQSGNSQESVTEQDSKDSTYSLSSTLTLSKADYEKHKVYACEVTHQGLSSPVTKSFNRGEC
modifications: non-natural residues
As to B5, the EC50 in data set [2] (setting [8]) came to 0.19 nM.

B6: [Gd/DOTA-NH-CH2-(1,4-Ph)-NH-C(═O)-Met-Ile-NH-(CH2)2-(A-4 and/or A-5)]p-Fab^5 (Fab, V domains shown)
VH: QVQLVQSGAEVKKPGASVKVSCKASGYTFTNYGLSWVRQAPGQGLEWMGENHPGSGIIYHNEKFRGRVTLTADRSTSTAYMELSSLRSEDTAVYYCARSSGTRGFDYWGQGTLVTVSS
VL: DVVMTQTPLSLSVTPGQPASISCRSSQSIVHSNGNTYLEWYLQKPGQSPQLLIYRVSNRFSGVPDRFSGSGSGTDFTLKISRVEAEDVGVYYCFQGSHGPWTFGQGTKLEIKR
modifications: labeling may sit on this chain; sites not stated; labeling portion (MW 1092) on amino groups of the Fab, sites and chain not stated; 1-3 per Fab by MS; Gln 1 pyroglutamic acid as Fab^5 is defined in paragraph 370
B6 yielded a half-maximal effective concentration (EC50) in data set [5] of 0.08 nM.

B7: [Gd/DOTA-NH-CH2-(1,4-Ph)-NH-C(═O)-Met-Ile-NH-(CH2)2-(A-3)]p-Fab^5 (Fab, V domains shown)
VH: QVQLVQSGAEVKKPGASVKVSCKASGYTFTNYGLSWVRQAPGQGLEWMGENHPGSGIIYHNEKFRGRVTLTADRSTSTAYMELSSLRSEDTAVYYCARSSGTRGFDYWGQGTLVTVSS
VL: DVVMTQTPLSLSVTPGQPASISCRSSQSIVHSNGNTYLEWYLQKPGQSPQLLIYRVSNRFSGVPDRFSGSGSGTDFTLKISRVEAEDVGVYYCFQGSHGPWTFGQGTKLEIKR
modifications: labeling may sit on this chain; sites not stated; labeling portion (MW 1187) on amino groups of the Fab, sites and chain not stated; 1-2 per Fab by MS; Gln 1 pyroglutamic acid as Fab^5 is defined in paragraph 370
On to B7, for which, in data set [5], the EC50 was determined as 0.15 nM.

B8: Ex-No 108, conjugate of Fab^5 without peptide linker (structure given only as drawing CHEM-US-00165) (Fab, V domains shown)
VH: QVQLVQSGAEVKKPGASVKVSCKASGYTFTNYGLSWVRQAPGQGLEWMGENHPGSGIIYHNEKFRGRVTLTADRSTSTAYMELSSLRSEDTAVYYCARSSGTRGFDYWGQGTLVTVSS
VL: DVVMTQTPLSLSVTPGQPASISCRSSQSIVHSNGNTYLEWYLQKPGQSPQLLIYRVSNRFSGVPDRFSGSGSGTDFTLKISRVEAEDVGVYYCFQGSHGPWTFGQGTKLEIKR
modifications: labeling may sit on this chain; sites not stated; low molecular weight molecule (MW 542) bound to the Fab, sites and chain not stated; 1-3 per Fab by MS; Gln 1 pyroglutamic acid as Fab^5 is defined in paragraph 370
As to B8, the EC50 in data set [5] and in data set [6] was 0.07 nM each time.

Values taken from patent US20220096653A1, “CONJUGATE COMPRISING LIGAND AND CEACAM5 ANTIBODY FAB FRAGMENT” (ASTELLAS PHARMA INC., priority 2019, published 2022).
